Measurements from patent publication US9598687B2.

Target: recombinant human prothrombin (Factor II) (human) (UniProt P00734)

- Lys-C fragments identified by reverse phase UPLC and mass spectrometry (peptide mapping): 25 fragments
Substance: endoproteinase Lysyl endopeptidase (Lys-C) (tool reagent)
